Measurements published in patent US20260224701A1.
Where a chain is given by its changes, count along the chain named.

B1: MIL33B-H3-hIgG1 (antibody, V domains shown)
VH: QVQLVQSGAEVKKPGASVKVSCKASGYTFTSYVMHWVRQAPGQRLEWMGYINSYSDGTKYNEKFKGRVTITRDTSASTAYMELSSLRSEDTAVYYCARWGGLGNGAMDYWGQGTLVTVSS
VL: EIVLTQSPATLSLSPGERATLSCSVSSSVNYMHWYQQKPGQAPRRLIYDTSKLASGIPARFSGSGSGTDYTLTISSLEPEDFAVYYCQQWTSNPLTFGQGTKLEIK
B2: Grafted Fab-SASA (Fab, V domains shown)
VH: B1 VH
VL: EIVLTQSPATLSLSPGERATLSCSVSSSVNYMHWYQQKPGQAPRLLIYDTSKLASGIPARFSGSGSGTDFTLTISSLEPEDFAVYYCQQWTSNPLTFGQGTKLEIKR
B3: AHF15938 Fab-SASA (Fab, V domains shown)
VH: B1 VH with V68A
VL: B1 VL
B4: AHF15948 Fab-SASA (Fab, V domains shown)
VH: B1 VH
VL: B1 VL
B5: MIL33B-H2-hIgG1 (antibody, V domains shown)
VH: B1 VH with V68A
VL: B1 VL
B6: AHF15945 Fab-SASA (Fab, V domains shown)
VH: B1 VH with R72S
VL: B1 VL
B7: MIL33B-H1-hIgG1 (antibody, V domains shown)
VH: B1 VH with R72S
VL: B1 VL
B8: MIL33B chimeric antibody (full-length IgG) (antibody, V domains shown)
VH: EVQLQQSGPELVKPGASVKMSCKASGYTFTSYVMHWVRQSPGQGLEGIGYINSYSDGTKYNEKFKGKATLTSDKSSSTAYMELSGLTSEDSAVYYCARWGGLGNGAMDYWGQGTSVTVSS
VL: QIVLTQSPAIMSASPGEKVTMTCSVSSSVNYMHWYQQKSGTSPKRWIYDTSKLASGVPARFSASGSGTSYSLTISSMEAEDAATYYCQQWTSNPLTFGAGTKLELKR
B9: MIL33B-mIgG2a (murine MIL33B antibody) (antibody, from a related filing, V domains shown)
VH: B8 VH
VL: QIVLTQSPAIMSASPGEKVTMTCSVSSSVNYMHWYQQKSGTSPKRWIYDTSKLASGVPARFSASGSGTSYSLTISSMEAEDAATYYCQQWTSNPLTFGAGTKLELK
B10: Chimeric Fab-SASA (Fab, V domains shown)
VH: B8 VH
VL: B8 VL

Tests used:
Human rhB7-H3 (human) [1] = target: Human rhB7-H3 (human) (UniProt Q5ZPR3); assay: SPR (Biacore 8K/T200), purified IgG as ligand, rhB7-H3 as analyte
[2] = target: human 4Ig-B7-H3 extracellular domain (human) (UniProt Q5ZPR3); assay: biolayer interferometry (Octet), antibody captured on the probe, extracellular domain in solution
Sequence of human 4Ig-B7-H3 extracellular domain (human) (Q5ZPR3 29-466): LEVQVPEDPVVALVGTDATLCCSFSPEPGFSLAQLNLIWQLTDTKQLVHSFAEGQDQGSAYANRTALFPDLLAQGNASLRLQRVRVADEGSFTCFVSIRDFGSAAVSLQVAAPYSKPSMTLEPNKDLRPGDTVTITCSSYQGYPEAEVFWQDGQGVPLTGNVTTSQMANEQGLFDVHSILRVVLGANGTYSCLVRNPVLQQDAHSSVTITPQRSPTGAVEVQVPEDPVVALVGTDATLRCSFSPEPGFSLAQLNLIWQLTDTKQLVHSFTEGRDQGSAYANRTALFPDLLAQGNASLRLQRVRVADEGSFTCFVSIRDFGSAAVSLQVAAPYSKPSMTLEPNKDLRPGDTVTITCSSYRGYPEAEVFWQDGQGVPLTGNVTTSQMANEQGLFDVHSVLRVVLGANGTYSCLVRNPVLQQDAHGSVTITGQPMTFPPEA

[3] = target: human 4Ig-B7-H3 extracellular domain (human) (UniProt Q5ZPR3); assay: biolayer interferometry (Octet); ratio of the KD values against 2Ig-B7-H3 as reference
Human rhB7-H3 (human) [4] = target: Human rhB7-H3 (human) (UniProt Q5ZPR3); assay: SPR (Biacore 8K/T200), Fab-SASA captured on immobilised albumin, B7-H3 as analyte, 1:1 model
Human rhB7-H3 (human) [5] = target: Human rhB7-H3 (human) (UniProt Q5ZPR3); assay: SPR (Biacore 8K/T200), antibody captured via Fc, B7-H3 antigen as analyte at 1.17-75 nM
[6] = target: Porcine 4Ig-B7-H3 extracellular domain (porcine); assay: biolayer interferometry (Octet), antibody captured on the probe, extracellular domain in solution
Sequence of Porcine 4Ig-B7-H3 extracellular domain (porcine) (chain, as listed by the source): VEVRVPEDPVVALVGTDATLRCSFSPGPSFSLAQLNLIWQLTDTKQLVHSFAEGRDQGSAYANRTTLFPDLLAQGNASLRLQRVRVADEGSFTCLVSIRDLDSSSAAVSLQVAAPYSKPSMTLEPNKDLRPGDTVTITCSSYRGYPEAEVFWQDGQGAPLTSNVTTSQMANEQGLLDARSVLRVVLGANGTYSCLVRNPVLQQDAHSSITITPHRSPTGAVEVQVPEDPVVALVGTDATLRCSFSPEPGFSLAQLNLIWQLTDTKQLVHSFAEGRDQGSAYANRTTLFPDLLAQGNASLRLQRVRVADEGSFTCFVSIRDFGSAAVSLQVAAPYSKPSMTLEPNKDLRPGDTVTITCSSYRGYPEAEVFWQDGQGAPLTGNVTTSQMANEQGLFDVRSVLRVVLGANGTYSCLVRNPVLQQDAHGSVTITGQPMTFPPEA

[7] = target: human 2Ig-B7-H3 extracellular domain (human) (UniProt Q5ZPR3); assay: as above

Row | Kd (Human rhB7-H3 (human) [1]) | koff (Human rhB7-H3 (human) [1]) | kon (Human rhB7-H3 (human) [1]) | Kd [2] | Kd (Human rhB7-H3 (human) [4]) | koff (Human rhB7-H3 (human) [4]) | kon (Human rhB7-H3 (human) [4]) | other results | Binder
1 | 0.243 nM | 0.000117 s⁻¹ | 481000 M⁻¹ s⁻¹ | 0.121 nM |  |  |  | selectivity ratio, 4Ig-B7-H3 over 2Ig-B7-H3 [3]: 360 | B1
2 |  |  |  |  | 28.5 nM | 0.0117 s⁻¹ | 413000 M⁻¹ s⁻¹ |  | B2
3 |  |  |  |  | 0.00804 nM | 1.97e-06 s⁻¹ | 245000 M⁻¹ s⁻¹ |  | B3
4 |  |  |  |  | 0.366 nM | 9.35e-05 s⁻¹ | 255000 M⁻¹ s⁻¹ |  | B4
5 | 0.226 nM | 0.000105 s⁻¹ | 464000 M⁻¹ s⁻¹ | 0.12 nM |  |  |  |  | B5
6 |  |  |  |  | 0.888 nM | 0.000244 s⁻¹ | 274000 M⁻¹ s⁻¹ |  | B6
7 | 0.233 nM | 0.000139 s⁻¹ | 597000 M⁻¹ s⁻¹ | 0.153 nM |  |  |  |  | B7
8 | 0.148 nM | 7.16e-05 s⁻¹ | 482000 M⁻¹ s⁻¹ | 0.16 nM |  |  |  | Kd (Human rhB7-H3 (human) [5]): 0.199 nM; koff (Human rhB7-H3 (human) [5]): 0.000121 s⁻¹; kon (Human rhB7-H3 (human) [5]): 609000 M⁻¹ s⁻¹ | B8
9 |  |  |  | 0.0807 nM |  |  |  | Kd [6]: 0.102 nM; Kd [7]: 0.781 nM | B9
10 |  |  |  |  | 0.499 nM | 0.000131 s⁻¹ | 262000 M⁻¹ s⁻¹ |  | B10
